Kd data for three molecules are collected here from US20240301429A1 (RSEM LIMITED PARTNERSHIP, published 2024).

The experiment concerns the target T1, SEMA3A-FC (R&D systems) (Homo sapiens (Human), UniProt Q14563 22-771).
T1 construct: Bought reagent; not shown: Fc portion of the bought fusion, detected with anti-human IgG
T1 sequence: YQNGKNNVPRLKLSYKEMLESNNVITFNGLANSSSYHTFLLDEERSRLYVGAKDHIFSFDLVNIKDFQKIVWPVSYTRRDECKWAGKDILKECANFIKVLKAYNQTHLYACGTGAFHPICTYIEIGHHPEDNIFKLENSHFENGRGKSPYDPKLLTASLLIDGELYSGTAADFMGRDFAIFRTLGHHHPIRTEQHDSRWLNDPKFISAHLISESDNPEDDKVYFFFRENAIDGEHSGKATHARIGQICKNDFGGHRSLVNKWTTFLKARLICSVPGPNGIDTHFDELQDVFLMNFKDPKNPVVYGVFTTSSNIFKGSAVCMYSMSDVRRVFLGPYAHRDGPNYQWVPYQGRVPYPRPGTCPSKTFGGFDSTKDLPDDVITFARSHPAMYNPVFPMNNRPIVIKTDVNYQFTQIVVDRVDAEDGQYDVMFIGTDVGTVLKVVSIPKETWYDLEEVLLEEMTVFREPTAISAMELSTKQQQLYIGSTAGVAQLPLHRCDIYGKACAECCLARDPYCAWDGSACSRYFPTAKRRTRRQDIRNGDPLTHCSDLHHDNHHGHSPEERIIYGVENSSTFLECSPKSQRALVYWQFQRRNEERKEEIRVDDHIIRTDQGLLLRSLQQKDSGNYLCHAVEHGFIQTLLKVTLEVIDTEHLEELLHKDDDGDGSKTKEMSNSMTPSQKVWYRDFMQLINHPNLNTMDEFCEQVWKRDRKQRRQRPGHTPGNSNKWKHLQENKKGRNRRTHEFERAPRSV
As to the kind of experiment: saturation binding, trap coated on plate, SEMA3A-FC titrated, anti-human IgG-HRP chemiluminescence. As for the experimental part:
Sema 3A and AP-VEGF₁₆₅ binding assays. Saturation curves for the determinations of KD of binding to SEMA 3A or VEGF165 were obtained as follow. Wells of high protein binding 96 well plates (Maxisorp, Nunc) were coated with purified traps diluted in PBS and blocked afterward with binding buffer (PBS containing 2% casein and 0.05% Tween 20). The SEMA3A-FC (R&D systems) or AP-VEGF165 ligands were diluted in binding buffer over an extensive range of concentrations and added to wells. Following an overnight incubation, wells were washed with PBS containing 0.05% tween. Bound SEMA3a-FC was detected using an HRP-linked anti-Human IgG (Biorad) and ECL substrate (Pierce). Alternatively, bound AP-VEGF165 was detected using CPD star substrate (Roche). The Chemiluminescent signal was acquired on a TECAN reader. Dissociation constant (KD) were determined by non-linear curve fitting using the Graph Pad prism software.

B1: NRP1 trap AJ (receptor)
chain: FRNDKRGPECSQNYTTPSGVIKSPGFPEKYPNSLECTYIVFAPKMSEIILEFESFDLEPDSNPPGGMFCRYDRLEIWDGFPDVGPHIGRYCGQKTPGRIRSSSGILSMVFYTDSAIAKEGFSANYSVLQSSVSEDFKCMEALGMESGEIHSDQITASSQYSTNWSAERSRLNYPENGWTPGEDSYREWIQVDLGLLRFVTAVGTQGAISKETKKKYYVKTYKIDVSSNGEDWITIKEGNKPVLFQGNTNPTDVVVAVFPKPLITRFVRIKPATWETGISMRFEVYGCKITDYPCSGMLGMVSGLISDSQITSSNQGDRNWMPENIRLVTSRSGWALPPAPHSYINEWLQIDLGEEKIVRGIIIQGGKHRENKVFMRKFKIGYSNNGSDWKMIMDDSKRKAKSFEGNNNYDTPELRTFPALSTRFIRIYPERATHGGLGLRMELLGCEVEAPTAGPTTPNGNLVDECDDDQANCHSGTGDDFQLTGGTTVLATEKPTVIDSTIQSEFPTYGFNCEFGWGSHKTFCHWEHDNHVQLKWSVLTSKTGPIQDHTGDGNFIYSQADENQKGKVARLVSPVVYSQNSAHCMTFWYHMSGSHVGTLRVKLRYQKPEEYDQLVWMAIGHQGDHWKEGRVLLHKSLKLYQVIFEGEIGKGNLGGIAVDDISINNHISQEDCAKPADLDKKNPEIKIDETGSTPGYEGEGEGDKNISRKPGNVLKTLDPRSGSKENLYFQG
notes: a2b1b2c; Signal peptide not trimmed
The Kd is the equilibrium constant for the complex coming apart. B1 gave a Kd of 2.4 nM.

B2: NRP1 trap AK (receptor)
chain: FRNDKRGPECSQNYTTPSGVIKSPGFPEKYPNSLECTYIVFAPKMSEIILEFESFDLEPDSNPPGGMFCRYDRLEIWDGFPDVGPHIGRYCGQKTPGRIRSSSGILSMVFYTDSAIAKEGFSANYSVLQSSVSEDFKCMEALGMESGEIHSDQITASSQYSTNWSAERSRLNYPENGWTPGEDSYREWIQVDLGLLRFVTAVGTQGAISKETKKKYYVKTYKIDVSSNGEDWITIKEGNKPVLFQGNTNPTDVVVAVFPKPLITRFVRIKPATWETGISMRFEVYGCKITDYPCSGMLGMVSGLISDSQITSSNQGDRNWMPENIRLVTSRSGWALPPAPHSYINEWLQIDLGEEKIVRGIIIQGGKHRENKVFMRKFKIGYSNNGSDWKMIMDDSKRKAKSFEGNNNYDTPELRTFPALSTRFIRIYPERATHGGLGLRMELLGCRSGSKENLYFQG
notes: a2b1b2; Signal peptide not trimmed
As for B2, binding was characterised by a dissociation constant (Kd) of 4.4 nM.

B3: NRP1 trap Z (receptor)
chain: FRNDKCGDTIKIESPGYLTSPGYPHSYHPSEKCEWLIQAPDPYQRIMINFNPHFDLEDRDCKYDYVEVFDGENENGHFRGKFCGKIAPPPVVSSGPFLFIKFVSDYETHGAGFSIRYELFKRGPECSQNYTTPSGVIKSPGFPEKYPNSLECTYIVFAPKMSEIILEFESFDLEPDSNPPGGMFCRYDRLEIWDGFPDVGPHIGRYCGQKTPGRIRSSSGILSMVFYTDSAIAKEGFSANYSVLQSSVSEDFKCMEALGMESGEIHSDQITASSQYSTNWSAERSRLNYPENGWTPGKKSYREWIQVDLGLLRFVTAVGTQGAISKETKKKYYVKTYKIDVSSNGEDWITIKEGNKPVLFQGNTNPTDVVVAVFPKPLITRFVRIKPATWETGISMRFEVYGCKITDYPCSGMLGMVSGLISDSQITSSNQGDRNWMPENIRLVTSRSGWALPPAPHSYINEWLQIDLGEEKIVRGIIIQGGKHRENKVFMRKFKIGYSNNGSDWKMIMDDSKRKAKSFEGNNNYDTPELRTFPALSTRFIRIYPERATHGGLGLRMELLGCEVEAPTAGPTTPNGNLVDECDDDQANCHSGTGDDFQLTGGTTVLATEKPTVIDSTIQSEFPTYGFNCEFGWGSHKTFCHWEHDNHVQLKWSVLTSKTGPIQDHTGDGNFIYSQADENQKGKVARLVSPVVYSQNSAHCMTFWYHMSGSHVGTLRVKLRYQKPEEYDQLVWMAIGHQGDHWKEGRVLLHKSLKLYQVIFEGEIGKGNLGGIAVDDISINNHISQEDCAKPADLDKKNPEIKIDETGSTPGYEGEGEGDKNISRKPGNVLKTLDPRSGSKENLYFQG
notes: a1a2-b1b2-c with E319K, D320K (held in the entry); Signal peptide not trimmed
The molecule B3 yielded a Kd of 4.44 nM.
